The results in this text go back to patent US20180155451A1 (published 2018).

Positions count from the first letter of the chain named. In names and notes the source's numbering stands.

B1: H240-Kn061/H240-Hl071/L73-k0 variant with F241L introduced into H240-Hl071 (antibody, human IgG1, kappa)
heavy 1: QDQLVQSGAEVKKPGASVKVSCKASGFNIKDTYIQWVRQAPGQGLEWMGRIDPLRKQTKYREKFEGRVTITADTSTNTAYMELSSLRSEDTAVYYCVRSGREFDYWGQGTLVTVSSASTKGPSVFPLAPSSKSTSGGTAALGCLVKDYFPEPVTVSWNSGALTSGVHTFPAVLQSSGLYSLSSVVTVPSSSLGTQTYICNVNHKPSNTKVDKKVEPKSCDKTHTCPPCPAPEYYWGPSVFLFPPKPKDTLMISRTPEVTCVVVDVSDEDPEVKFNWYVDGVEVHNAKTKPREEQYNATYRVVSVLTVLHQDWLNGKEYKCKVSNKALPAPIEKTISKAKGQPREPQVCTLPPSRDELTKNQVSLWCLVKGFYPSDIAVEWESNGQPENNYKTTPPVLDSDGSFFLYSKLTVDKSRWQQGNVFSCSVMHEALHNHYTQKSLSLSP
heavy 2: QDQLVQSGAEVKKPGASVKVSCKASGFNIKDTYIQWVRQAPGQGLEWMGRIDPLRKQTKYREKFEGRVTITADTSTNTAYMELSSLRSEDTAVYYCVRSGREFDYWGQGTLVTVSSASTKGPSVFPLAPSSKSTSGGTAALGCLVKDYFPEPVTVSWNSGALTSGVHTFPAVLQSSGLYSLSSVVTVPSSSLGTQTYICNVNHKPSNTKVDKKVEPKSCDKTHTCPPCPAPELLGGPSVLLFPPKPKDTLMISRTPEVTCVVVDVSHEDPEVKFNWYVDGVEVHNAKTKPREEQYNSTYRVVSVLTVLHQDWLNGKEYKCKVSNDALPMPIEETISKAKGQPREPQVYTLPPSRCELTKNQVSLSCAVKGFYPSDIAVEWESNGQPENNYKTTPPVLDSDGSFFLVSKLTVDKSRWQQGNVFSCSVMHEALHNHYTQKSLSLSP
light: DIQMTQSPSSLSASVGDRVTITCRASQDIHKYIAWYQQKPGQAPRLLIQYTSTLQPGVPSRFSGSGSGTDYTFTISSLQPEDIATYYCLQYEQLRTFGGGTKVEIKRTVAAPSVFIFPPSDEQLKSGTASVVCLLNNFYPREAKVQWKVDNALQSGNSQESVTEQDSKDSTYSLSSTLTLSKADYEKHKVYACEVTHQGLSSPVTKSFNRGEC
notes: Point variant made with H240-Kn061/H240-Hl071/L73-k0 as template; position by EU numbering; also called H240-Hl071 F241L
B2: H240-Kn061/H240-Hl071/L73-k0 variant with F241M introduced into H240-Hl071 (antibody, human IgG1, kappa)
heavy 1: B1 heavy 1
heavy 2: B1 heavy 2 with L240M
light: B1 light
notes: Point variant made with H240-Kn061/H240-Hl071/L73-k0 as template; position by EU numbering; also called H240-Hl071 F241M
B3: H240-Kn061/H240-Hl071/L73-k0 variant with Y235N introduced into H240-Kn061 (antibody, human IgG1, kappa)
heavy 1: B1 heavy 1 with Y234N
heavy 2: B1 heavy 2 with L240F
light: B1 light
notes: Point variant made with H240-Kn061/H240-Hl071/L73-k0 as template; position by EU numbering; also called H240-Kn061 Y235N
B4: H240-Kn061/H240-Hl071/L73-k0 variant with Y234E introduced into H240-Kn061 (antibody, human IgG1, kappa)
heavy 1: B1 heavy 1 with Y233E
heavy 2: B1 heavy 2 with L240F
light: B1 light
notes: Point variant made with H240-Kn061/H240-Hl071/L73-k0 as template; position by EU numbering; also called H240-Kn061 Y234E
B5: H240-Kn061/H240-Hl071/L73-k0 variant with V240F introduced into H240-Hl071 (antibody, human IgG1, kappa)
heavy 1: B1 heavy 1
heavy 2: B1 heavy 2 with V239F, L240F
light: B1 light
notes: Point variant made with H240-Kn061/H240-Hl071/L73-k0 as template; position by EU numbering; also called H240-Hl071 V240F
B6: H240-Kn061/H240-Hl071/L73-k0 variant with V240A introduced into H240-Hl071 (antibody, human IgG1, kappa)
heavy 1: B1 heavy 1
heavy 2: B1 heavy 2 with V239A, L240F
light: B1 light
notes: Point variant made with H240-Kn061/H240-Hl071/L73-k0 as template; position by EU numbering; also called H240-Hl071 V240A
B7: H240-Kn061/H240-Hl071/L73-k0 variant with L235F introduced into H240-Hl071 (antibody, human IgG1, kappa)
heavy 1: B1 heavy 1
heavy 2: B1 heavy 2 with L234F, L240F
light: B1 light
notes: Point variant made with H240-Kn061/H240-Hl071/L73-k0 as template; position by EU numbering; also called H240-Hl071 L235F

The first assay deals with T1, FcgRIIIa V extracellular domain with C-terminal His tag (human, UniProt P08637 17-208).
T1 construct: extracellular domain; also called FcγRIIIa V; FcγRIIIa (V158); not shown: His tag attached to the C terminus
T1 sequence (P08637 17-208 F176V): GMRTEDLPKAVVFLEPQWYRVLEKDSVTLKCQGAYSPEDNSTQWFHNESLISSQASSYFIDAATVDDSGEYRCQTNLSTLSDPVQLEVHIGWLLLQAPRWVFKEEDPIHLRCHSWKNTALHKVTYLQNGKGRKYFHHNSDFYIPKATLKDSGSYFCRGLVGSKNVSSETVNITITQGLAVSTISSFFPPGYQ
The assay can be described thus: SPR (Biacore) KD ratio against the template H240-Kn061/H240-Hl071/L73-k0. As to the method:
(§1) The antibodies were assessed for the binding to each FcgR. […] The resultant value was defined as relative KD, and used as an assessment indicator.
(§2) Analysis of interaction between obj ective antibody and the FcγR was carried out using Biacore T100 (GE Healthcare), Biacore T200, Biacore A100, and Biacore 4000. HBS-EP+ (GE Healthcare) was used as the running buffer, and the measurement temperature was set to 25° C. Chips produced by immobilizing the antigen peptide by the amine coupling method to a Series S sensor Chip CM5 (GE Healthcare), chips produced by allowing preliminarily biotinylated antigen peptides to interact with and immobilize onto a Series S Sensor Chip SA (certified) (GE Healthcare), chips produced by immobilizing Protein L (ACTIGEN, BioVision) to Series S Sencor Chip CM5 (GE Healthcare), or chips produced by immobilizing Protein A/G (Thermo Scientific) to Series S Sencor Chip CM5 (GE Healthcare) were used. Antibodies of interest were captured onto these chips, and allowed to interact to each FcγR diluted with running buffer.
Turning to B1, the “relative KD (KD of H240-Kn061/H240-Hl071/L73-k0 / KD of variant)” value came out at 1.3.

Consider B2, for which the “relative KD (KD of H240-Kn061/H240-Hl071/L73-k0 / KD of variant)” value was 1.3.

Regarding B3, the “relative KD (KD of H240-Kn061/H240-Hl071/L73-k0 / KD of variant)” value came out at 2.

On to B4, for which the “relative KD (KD of H240-Kn061/H240-Hl071/L73-k0 / KD of variant)” value came out at 1.6.

On to B5, for which the “relative KD (KD of H240-Kn061/H240-Hl071/L73-k0 / KD of variant)” value was determined as 1.

B6: the “relative KD (KD of H240-Kn061/H240-Hl071/L73-k0 / KD of variant)” value is 1.7.

For B7, the “relative KD (KD of H240-Kn061/H240-Hl071/L73-k0 / KD of variant)” value worked out at 1.6.

Another assay deals with T2, FcgRIIIa F extracellular domain with C-terminal His tag (human, UniProt P08637 17-208).
T2 construct: extracellular domain; also called FcγRIIIa F; FcγRIIIa (F158); not shown: His tag attached to the C terminus
T2 sequence (P08637 17-208): as the sequence (P08637 17-208 F176V) above, with V160F counted along it
The description is as above. As to the method: as §1, §2
B1: the “relative KD (KD of H240-Kn061/H240-Hl071/L73-k0 / KD of variant)” value was determined as 1.3.

B2: the “relative KD (KD of H240-Kn061/H240-Hl071/L73-k0 / KD of variant)” value worked out at 1.3.

Regarding B3, the “relative KD (KD of H240-Kn061/H240-Hl071/L73-k0 / KD of variant)” value is 1.3.

As to B4, the “relative KD (KD of H240-Kn061/H240-Hl071/L73-k0 / KD of variant)” value was determined as 1.9.

As for B5, the “relative KD (KD of H240-Kn061/H240-Hl071/L73-k0 / KD of variant)” value worked out at 1.4.

Consider B6, for which the “relative KD (KD of H240-Kn061/H240-Hl071/L73-k0 / KD of variant)” value was 1.3.

B7: the “relative KD (KD of H240-Kn061/H240-Hl071/L73-k0 / KD of variant)” value was determined as 1.9.

In the next assay the target is T3, FcgRIIb extracellular domain with C-terminal His tag (human, UniProt P31994 43-217).
T3 construct: extracellular domain; also called FcγRIIb; not shown: His tag attached to the C terminus
T3 sequence (looked up): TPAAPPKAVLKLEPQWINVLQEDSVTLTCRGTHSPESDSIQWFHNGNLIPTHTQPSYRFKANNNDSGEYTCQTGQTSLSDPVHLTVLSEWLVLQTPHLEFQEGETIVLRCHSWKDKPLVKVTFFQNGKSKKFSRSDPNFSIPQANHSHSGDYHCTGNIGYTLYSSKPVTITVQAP
The description is as above. As to the method: as §1, §2
On to B1, for which the “relative KD (KD of H240-Kn061/H240-Hl071/L73-k0 / KD of variant)” value was found to be 0.8.

B2: the “relative KD (KD of H240-Kn061/H240-Hl071/L73-k0 / KD of variant)” value stood at 0.9.

On to B3, for which the “relative KD (KD of H240-Kn061/H240-Hl071/L73-k0 / KD of variant)” value worked out at 0.7.

As for B4, the “relative KD (KD of H240-Kn061/H240-Hl071/L73-k0 / KD of variant)” value was found to be 0.5.

B5: the “relative KD (KD of H240-Kn061/H240-Hl071/L73-k0 / KD of variant)” value is 0.9.

As to B6, the “relative KD (KD of H240-Kn061/H240-Hl071/L73-k0 / KD of variant)” value came to 1.

Turning to B7, the “relative KD (KD of H240-Kn061/H240-Hl071/L73-k0 / KD of variant)” value was 1.

For the next assay, the target named is T4, FcgRIIa H extracellular domain with C-terminal His tag (human, UniProt P12318 34-217).
T4 construct: extracellular domain; also called FcγRIIa H; FcγRIIa type H; not shown: His tag attached to the C terminus
T4 sequence (looked up): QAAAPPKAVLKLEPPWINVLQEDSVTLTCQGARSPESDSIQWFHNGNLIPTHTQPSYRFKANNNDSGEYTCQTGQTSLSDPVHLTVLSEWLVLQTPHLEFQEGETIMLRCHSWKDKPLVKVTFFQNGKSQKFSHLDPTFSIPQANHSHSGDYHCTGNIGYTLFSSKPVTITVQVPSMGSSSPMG
The assay is described as above. As to the method: as §1, §2
As to B1, the “relative KD (KD of H240-Kn061/H240-Hl071/L73-k0 / KD of variant)” value turned out to be 1.2.

As for B2, the “relative KD (KD of H240-Kn061/H240-Hl071/L73-k0 / KD of variant)” value stood at 1.1.

In the case of B3, the “relative KD (KD of H240-Kn061/H240-Hl071/L73-k0 / KD of variant)” value came out at 0.7.

With B4, the “relative KD (KD of H240-Kn061/H240-Hl071/L73-k0 / KD of variant)” value worked out at 0.7.

As for B5, the “relative KD (KD of H240-Kn061/H240-Hl071/L73-k0 / KD of variant)” value is 0.9.

B6: the “relative KD (KD of H240-Kn061/H240-Hl071/L73-k0 / KD of variant)” value amounted to 1.2.

Consider B7, for which the “relative KD (KD of H240-Kn061/H240-Hl071/L73-k0 / KD of variant)” value came to 1.1.

In the next assay the target is T5, FcgRIIa R extracellular domain with C-terminal His tag (human, UniProt P12318 34-217).
T5 construct: extracellular domain; also called FcγRIIa R; FcγRIIa type R; not shown: His tag attached to the C terminus
T5 sequence (looked up): T4 sequence (looked up) with H134R
The assay is described as above. As to the method: as §1, §2
Turning to B1, the “relative KD (KD of H240-Kn061/H240-Hl071/L73-k0 / KD of variant)” value worked out at 1.2.

With B2, the “relative KD (KD of H240-Kn061/H240-Hl071/L73-k0 / KD of variant)” value is 1.3.

In the case of B3, the “relative KD (KD of H240-Kn061/H240-Hl071/L73-k0 / KD of variant)” value is 1.

For B4, the “relative KD (KD of H240-Kn061/H240-Hl071/L73-k0 / KD of variant)” value worked out at 1.4.

For B5, the “relative KD (KD of H240-Kn061/H240-Hl071/L73-k0 / KD of variant)” value came out at 1.1.

Take B6: the “relative KD (KD of H240-Kn061/H240-Hl071/L73-k0 / KD of variant)” value turned out to be 1.

With B7, the “relative KD (KD of H240-Kn061/H240-Hl071/L73-k0 / KD of variant)” value was 1.2.
